This test addresses T1, Wingless (Wg), the Drosophila homolog of Wnt-1 (Drosophila, UniProt P09615 18-468).
T1 construct: mature; Used as unpurified conditioned medium in the ELISAs
T1 sequence (looked up): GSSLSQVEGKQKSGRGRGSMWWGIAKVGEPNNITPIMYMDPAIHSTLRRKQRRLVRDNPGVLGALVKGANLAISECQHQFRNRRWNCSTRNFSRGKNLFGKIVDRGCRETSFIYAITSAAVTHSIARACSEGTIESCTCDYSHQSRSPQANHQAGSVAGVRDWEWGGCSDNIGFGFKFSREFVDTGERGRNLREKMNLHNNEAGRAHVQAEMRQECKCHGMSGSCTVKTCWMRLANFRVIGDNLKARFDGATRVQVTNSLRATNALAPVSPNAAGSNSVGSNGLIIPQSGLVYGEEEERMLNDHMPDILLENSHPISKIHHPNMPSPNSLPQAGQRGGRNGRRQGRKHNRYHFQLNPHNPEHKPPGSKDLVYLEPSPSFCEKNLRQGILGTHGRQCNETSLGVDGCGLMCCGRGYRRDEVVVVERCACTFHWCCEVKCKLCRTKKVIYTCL
The test can be described thus: ELISA: FRP coated at 100 ng/well, Wg-containing S2 conditioned medium, detection with anti-Wg antibody. From the text: As an alternative, cell-free systems to study the binding of FRP and Wnts were developed. These systems have the advantage of simplicity, as the profile of endogenous Frizzled/FRP/Wnt expression would not be an issue. Moreover, experiments now can be performed with purified recombinant FRP. One model system disclosed in detail below makes use of an ELISA type of format. Microtiter wells are first coated with purified FRP, and then blocked with a large excess of bovine serum albumin (BSA). To minimize the problems associated with solubilizing Wnts, initial studies focused on studying FRP binding to Wingless (Wg) because an expression system is available that releases Wg into conditioned medium. Van Leeuwen, et al., Nature 368:342–344 (1994). Although expression of a heat shock-Wg construct in transfected S2 insect cells results in only a small fraction of recombinant Wg in the media, it is sufficient for binding studies and obviates the need for detergents or other agents to extract the protein from cell surfaces or extracellular matrix. […] After washing, the wells are sequentially incubated with antibody to Wg, secondary antiserum (against the Wg antibody) conjugated to alkaline phosphatase, and p-nitrophenol phosphate. […]
FIG. 13 illustrates the binding of FRP and Wg. […] Color development, monitored at 405 nm, was indicative of Wg binding in the well.
In general terms: An ELISA detects its analyte on a solid surface through an enzyme-linked reagent.

B1: human Frizzled-related protein (FRP) (receptor)
chain: VGSASEYDYVSFQSDIGPYQSGRFYTKPPQCVDIPADLRLCHNVGYKKMVLPNLLEHETMAEVKQQASSWVPLLNKNCHAGTQVFLCSLFAPVCLDRPIYPCRWLCEAVRDSCEPVMQFFGFYWPEMLKCDKFPEGDVCIAMTPPNATEASKPQGTTVCPPCDNELKSEAIIEHLCASEFALRMKIKEVKKENGDKKIVPKKKKPLKLGPIKKKDLKKLVLYLKNGADCPCHQLDNLSHHFLIMGRKVKSQYLLTAIHKWDKKNKEFKNFMKKMKNHECPTFQSVFK
notes: The natural protein purified from M426 medium began 11 residues further downstream (residue 38), with a second N-terminus three residues later; The N-terminus of the recombinant protein is not reported; In the ELISAs it was untagged full-length FRP purified from the medium of MDCK cells transfected with pcDNA3.1(+); also called hFRP; recombinant FRP
Regarding B1, the binding result is reported as “binds”.

The record behind these values is patent US7183377 (US Dept. of Health and Human Services, dated 2007).
